US20130171184A1

Target: Neisseria meningitidis Hsf (Msf) of strain H44/76, expressed on meningococci (Neisseria meningitidis strain H44/76) (UniProt Q7DDJ2)
Assay: ELISA, bacteria preincubated with 25 µg/ml peptide, binding to 2.5 µg/ml immobilised aVn

Neisseria meningitidis Hsf (Msf) of strain H44/76, expressed on meningococci (Neisseria meningitidis strain H44/76), sequence (Q7DDJ2 52-591): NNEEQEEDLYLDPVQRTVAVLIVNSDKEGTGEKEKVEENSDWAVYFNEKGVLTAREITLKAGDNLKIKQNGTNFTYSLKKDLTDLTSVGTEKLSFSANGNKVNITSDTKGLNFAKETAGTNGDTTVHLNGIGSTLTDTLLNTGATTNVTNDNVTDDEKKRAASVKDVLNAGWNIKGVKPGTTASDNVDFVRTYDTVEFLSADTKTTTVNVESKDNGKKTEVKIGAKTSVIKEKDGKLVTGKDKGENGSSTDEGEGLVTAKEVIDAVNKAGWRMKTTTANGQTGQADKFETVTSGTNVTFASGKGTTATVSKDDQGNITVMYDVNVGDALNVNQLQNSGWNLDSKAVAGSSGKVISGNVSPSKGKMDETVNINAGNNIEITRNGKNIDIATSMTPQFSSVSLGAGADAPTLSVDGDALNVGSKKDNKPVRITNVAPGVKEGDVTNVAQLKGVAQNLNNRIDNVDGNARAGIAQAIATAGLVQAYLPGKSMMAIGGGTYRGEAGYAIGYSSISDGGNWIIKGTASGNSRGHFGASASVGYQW

Question: How did the reduction in Msf binding to aVn turn out when “biotinylated sulphated vitronectin peptide VA-26S (amino acids 43-68)” was run?
Answer: 30%
